Results taken from patent US20150315252A1.

Biological target: CherryPicker DmrA chimeric protein
Assay: cell-based or functional assay

AcGFP-DmrC fusion protein
amount of AcGFP-DmrC in microvesicles produced with A/C heterodimerizer (western blot against AcGFP standards): 5 ng/µL | amount of AcGFP-DmrC in microvesicles produced without A/C heterodimerizer (western blot against AcGFP standards): 0.6 ng/µL | packaging efficiency of AcGFP-DmrC into microvesicles, +A/C against -A/C: 8 fold
